From the supplement of paper PMC5998384

Tests used:
[1] = system: HeLa Kyoto; assay: solubility change mitosis vs G1/S (difference of NP-40 vs SDS log2 ratios) (log2 ratio difference); higher = more soluble in mitosis
[2] = system: HeLa Kyoto; assay: solubility in G1/S (NP-40 vs SDS abundance) (log2 ratio); higher = more soluble; conditions: cell cycle stage: G1/S
[3] = system: HeLa Kyoto; assay: thermal stability score vs G1/S (z-score of summed log2 fold changes over temperatures); higher = more thermally stable than in G1/S
[4] = cell cycle stage: early G1 (4.5 h after nocodazole release)
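Wherever solubility change mitosis vs G1/S (difference of NP-40 vs SDS log2 ratios) is given: synchronized HeLa Kyoto cells (double thymidine block for G1/S, nocodazole release for mitosis), protein amounts in NP-40 versus SDS lysates quantified by mass spectrometry, three biological replicates.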
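Wherever solubility in G1/S (NP-40 vs SDS abundance) is given: HeLa Kyoto cells arrested at G1/S by double thymidine block, proteins quantified by TMT10plex mass spectrometry in mild NP-40 versus SDS extracts, three biological replicates.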
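Wherever thermal stability score vs G1/S (z-score of summed log2 fold changes over temperatures) is given: synchronized HeLa Kyoto cells, proteins quantified by TMT10plex mass spectrometry, three biological replicates, mitosis taken 0.5 h after nocodazole release, G1/S directly after double thymidine block.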

DGKZ, sequence (chain, as listed by the source): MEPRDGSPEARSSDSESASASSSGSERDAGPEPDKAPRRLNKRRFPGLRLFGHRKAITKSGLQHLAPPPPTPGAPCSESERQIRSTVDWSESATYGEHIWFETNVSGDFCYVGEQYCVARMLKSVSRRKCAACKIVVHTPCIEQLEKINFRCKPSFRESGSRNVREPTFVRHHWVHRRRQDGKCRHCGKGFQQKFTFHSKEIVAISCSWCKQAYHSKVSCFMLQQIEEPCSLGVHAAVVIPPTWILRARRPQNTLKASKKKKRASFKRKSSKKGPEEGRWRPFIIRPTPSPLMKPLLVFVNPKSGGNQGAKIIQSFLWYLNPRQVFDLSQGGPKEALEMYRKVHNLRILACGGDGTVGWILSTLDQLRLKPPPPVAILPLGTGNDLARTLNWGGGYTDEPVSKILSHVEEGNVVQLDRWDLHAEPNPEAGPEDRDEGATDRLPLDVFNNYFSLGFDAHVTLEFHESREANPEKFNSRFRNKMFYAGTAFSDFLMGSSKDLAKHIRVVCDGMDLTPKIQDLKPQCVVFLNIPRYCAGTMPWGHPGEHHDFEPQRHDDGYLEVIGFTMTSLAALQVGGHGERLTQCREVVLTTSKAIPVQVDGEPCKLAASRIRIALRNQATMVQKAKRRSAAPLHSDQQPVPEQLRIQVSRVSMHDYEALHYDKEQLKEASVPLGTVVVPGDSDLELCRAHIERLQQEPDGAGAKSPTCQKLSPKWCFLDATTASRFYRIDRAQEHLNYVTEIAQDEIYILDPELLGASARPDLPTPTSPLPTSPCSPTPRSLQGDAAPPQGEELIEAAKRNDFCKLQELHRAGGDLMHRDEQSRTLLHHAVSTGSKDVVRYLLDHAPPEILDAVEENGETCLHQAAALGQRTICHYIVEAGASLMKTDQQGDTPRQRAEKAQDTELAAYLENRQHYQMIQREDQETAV
KLF4, sequence (chain, as listed by the source): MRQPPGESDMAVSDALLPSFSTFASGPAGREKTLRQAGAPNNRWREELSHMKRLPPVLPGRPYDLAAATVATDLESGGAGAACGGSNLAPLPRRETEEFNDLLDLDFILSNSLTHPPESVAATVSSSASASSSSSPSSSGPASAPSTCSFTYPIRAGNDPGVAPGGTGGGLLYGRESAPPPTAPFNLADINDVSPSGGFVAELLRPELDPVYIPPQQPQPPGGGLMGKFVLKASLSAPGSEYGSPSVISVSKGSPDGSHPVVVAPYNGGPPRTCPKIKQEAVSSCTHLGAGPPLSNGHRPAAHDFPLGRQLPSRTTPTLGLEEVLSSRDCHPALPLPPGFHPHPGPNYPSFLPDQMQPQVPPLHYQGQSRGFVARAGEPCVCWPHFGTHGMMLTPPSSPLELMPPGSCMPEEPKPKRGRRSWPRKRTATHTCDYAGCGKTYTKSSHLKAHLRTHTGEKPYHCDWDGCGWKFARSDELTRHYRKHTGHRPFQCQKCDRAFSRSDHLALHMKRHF
IFT140, sequence (chain, as listed by the source): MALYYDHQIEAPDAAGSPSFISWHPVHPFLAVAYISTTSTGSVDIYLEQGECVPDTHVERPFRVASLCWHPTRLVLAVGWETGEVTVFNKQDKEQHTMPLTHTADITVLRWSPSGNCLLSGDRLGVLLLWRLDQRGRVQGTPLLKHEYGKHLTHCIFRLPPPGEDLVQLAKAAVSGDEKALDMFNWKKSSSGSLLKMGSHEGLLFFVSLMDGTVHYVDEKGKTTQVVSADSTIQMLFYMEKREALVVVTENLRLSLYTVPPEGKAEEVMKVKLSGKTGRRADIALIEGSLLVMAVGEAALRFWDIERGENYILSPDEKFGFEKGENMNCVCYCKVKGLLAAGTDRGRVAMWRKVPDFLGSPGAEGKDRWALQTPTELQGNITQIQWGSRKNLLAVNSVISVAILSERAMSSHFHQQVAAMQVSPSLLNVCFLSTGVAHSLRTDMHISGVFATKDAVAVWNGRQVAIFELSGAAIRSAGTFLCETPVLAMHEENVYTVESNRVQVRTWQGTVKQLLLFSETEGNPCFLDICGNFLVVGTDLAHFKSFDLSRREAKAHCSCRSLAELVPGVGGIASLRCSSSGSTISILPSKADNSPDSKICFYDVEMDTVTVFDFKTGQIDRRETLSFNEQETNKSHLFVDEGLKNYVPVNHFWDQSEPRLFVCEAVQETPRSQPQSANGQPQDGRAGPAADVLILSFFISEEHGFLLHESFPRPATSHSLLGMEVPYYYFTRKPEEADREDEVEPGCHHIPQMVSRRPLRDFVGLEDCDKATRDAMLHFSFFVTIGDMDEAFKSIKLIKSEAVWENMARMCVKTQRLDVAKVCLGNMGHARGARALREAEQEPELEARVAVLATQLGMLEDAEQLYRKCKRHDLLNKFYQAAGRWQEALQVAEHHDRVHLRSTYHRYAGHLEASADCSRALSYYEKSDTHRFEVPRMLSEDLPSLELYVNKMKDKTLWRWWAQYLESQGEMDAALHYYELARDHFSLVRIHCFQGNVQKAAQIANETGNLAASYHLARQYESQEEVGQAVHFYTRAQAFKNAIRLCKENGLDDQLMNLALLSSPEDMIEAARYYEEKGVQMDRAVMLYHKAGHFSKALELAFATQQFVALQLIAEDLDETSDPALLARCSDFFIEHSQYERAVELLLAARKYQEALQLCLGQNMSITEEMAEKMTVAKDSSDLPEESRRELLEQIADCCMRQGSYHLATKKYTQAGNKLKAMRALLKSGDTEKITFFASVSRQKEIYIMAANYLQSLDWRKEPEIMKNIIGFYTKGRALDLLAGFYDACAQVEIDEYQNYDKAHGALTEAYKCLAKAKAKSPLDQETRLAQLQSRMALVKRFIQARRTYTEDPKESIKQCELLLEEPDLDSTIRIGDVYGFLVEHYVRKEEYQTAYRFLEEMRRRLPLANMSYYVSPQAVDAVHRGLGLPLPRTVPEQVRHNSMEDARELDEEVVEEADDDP
KLF16, sequence (chain, as listed by the source): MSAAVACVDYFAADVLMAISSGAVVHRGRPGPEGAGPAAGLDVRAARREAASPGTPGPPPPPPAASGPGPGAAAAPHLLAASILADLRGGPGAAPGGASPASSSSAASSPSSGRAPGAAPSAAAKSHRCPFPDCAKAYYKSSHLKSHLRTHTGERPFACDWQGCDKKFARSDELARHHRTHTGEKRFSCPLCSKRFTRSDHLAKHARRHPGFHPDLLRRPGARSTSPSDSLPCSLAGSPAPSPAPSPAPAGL
JAG2, sequence (chain, as listed by the source): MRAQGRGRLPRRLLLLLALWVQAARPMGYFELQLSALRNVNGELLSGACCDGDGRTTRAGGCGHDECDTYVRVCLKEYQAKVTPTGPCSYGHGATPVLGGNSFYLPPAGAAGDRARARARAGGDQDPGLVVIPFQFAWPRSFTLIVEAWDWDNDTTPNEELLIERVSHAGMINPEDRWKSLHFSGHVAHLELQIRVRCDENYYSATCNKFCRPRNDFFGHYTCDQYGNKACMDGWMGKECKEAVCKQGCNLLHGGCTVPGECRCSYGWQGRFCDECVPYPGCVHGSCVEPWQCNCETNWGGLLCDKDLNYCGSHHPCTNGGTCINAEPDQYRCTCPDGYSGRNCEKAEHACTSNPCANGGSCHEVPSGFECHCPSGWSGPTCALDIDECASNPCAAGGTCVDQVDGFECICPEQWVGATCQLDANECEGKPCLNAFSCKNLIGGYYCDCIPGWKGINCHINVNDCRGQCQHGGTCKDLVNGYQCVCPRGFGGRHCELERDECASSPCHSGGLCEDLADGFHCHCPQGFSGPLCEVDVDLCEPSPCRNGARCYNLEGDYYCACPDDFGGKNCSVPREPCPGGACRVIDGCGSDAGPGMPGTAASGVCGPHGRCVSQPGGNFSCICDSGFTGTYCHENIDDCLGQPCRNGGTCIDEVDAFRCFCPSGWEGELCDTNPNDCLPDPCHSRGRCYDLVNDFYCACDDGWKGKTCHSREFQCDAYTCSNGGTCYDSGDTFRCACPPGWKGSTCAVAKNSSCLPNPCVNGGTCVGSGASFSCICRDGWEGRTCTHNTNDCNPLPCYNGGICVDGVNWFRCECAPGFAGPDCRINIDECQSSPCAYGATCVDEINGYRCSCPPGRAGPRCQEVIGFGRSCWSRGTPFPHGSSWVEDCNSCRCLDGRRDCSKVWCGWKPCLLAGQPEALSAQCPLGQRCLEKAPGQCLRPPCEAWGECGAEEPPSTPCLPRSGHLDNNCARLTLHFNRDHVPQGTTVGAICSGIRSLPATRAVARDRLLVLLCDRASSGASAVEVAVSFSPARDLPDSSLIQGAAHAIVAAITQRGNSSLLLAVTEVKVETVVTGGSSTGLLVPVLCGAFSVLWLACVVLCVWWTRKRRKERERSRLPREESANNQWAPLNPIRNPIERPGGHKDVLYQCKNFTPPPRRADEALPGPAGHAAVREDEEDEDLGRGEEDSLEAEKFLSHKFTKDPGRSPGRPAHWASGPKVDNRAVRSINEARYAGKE
KCT2, sequence (chain, as listed by the source): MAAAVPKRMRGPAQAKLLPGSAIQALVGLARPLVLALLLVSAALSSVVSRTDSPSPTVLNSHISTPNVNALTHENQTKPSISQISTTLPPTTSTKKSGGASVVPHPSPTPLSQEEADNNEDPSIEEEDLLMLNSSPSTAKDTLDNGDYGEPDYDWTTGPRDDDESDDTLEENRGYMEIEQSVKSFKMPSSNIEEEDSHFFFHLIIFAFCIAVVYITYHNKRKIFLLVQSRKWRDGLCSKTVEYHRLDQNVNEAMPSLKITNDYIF
DNLZ, sequence (chain, as listed by the source): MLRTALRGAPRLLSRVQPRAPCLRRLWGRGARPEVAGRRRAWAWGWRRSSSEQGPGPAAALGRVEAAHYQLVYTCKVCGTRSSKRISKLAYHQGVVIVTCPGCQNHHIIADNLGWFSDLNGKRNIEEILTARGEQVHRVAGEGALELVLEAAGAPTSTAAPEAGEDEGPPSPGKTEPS

| Substance | solubility change mitosis (log2) [1] | further results |
| --- | --- | --- |
| ALMS1 | 0.225 | solubility in G1/S (log2) [2]: 0.395 |
| ALPK2 | 0.00635 | solubility in G1/S (log2) [2]: -0.117 |
| BAHCC1 | 0.257 | solubility in G1/S (log2) [2]: -0.00383 |
| CABIN1 | 0.144 | solubility in G1/S (log2) [2]: -0.34 |
| CENPE | -0.1 | solubility in G1/S (log2) [2]: -0.0612 |
| CEP295 | -0.138 | solubility in G1/S (log2) [2]: 0.074 |
| CHD2 | 0.389 | solubility in G1/S (log2) [2]: -1.9 |
| CHD7 | 0.0296 | solubility in G1/S (log2) [2]: -0.18 |
| COL4A1 | 0.225 | solubility in G1/S (log2) [2]: -0.0938 |
| CROCC | -0.109 | solubility in G1/S (log2) [2]: 0.091 |
| DGKZ | 0.323 | solubility in G1/S (log2) [2]: 0.0613 |
| DNLZ | 0.242 | solubility in G1/S (log2) [2]: -0.145 |
| HECTD4 | 0.00851 | solubility in G1/S (log2) [2]: -0.212 |
| HOXC10 | -0.0635 | solubility in G1/S (log2) [2]: 0.535 |
| IFT140 | 0.0597 | solubility in G1/S (log2) [2]: -0.373 |
| JAG2 | 0.351 | solubility in G1/S (log2) [2]: -0.54 |
| KCT2 | -0.29 | solubility in G1/S (log2) [2]: 0.0557 |
| KLF4 | 0.0866 | solubility in G1/S (log2) [2]: -0.0723 |
| KLF16 | 0.0196 | solubility in G1/S (log2) [2]: 0.106 |
| LDHA | -0.0758 | – |
| MAAAADSFSGGPAGVRLPRSPPLKVLAEQLRRDAEGGPGAWRLSRAAAGRGPLDLAAVWMQGRVVMADRGEARLRDPSGDFSVRGLERVPRGRPCLVPGKYVMVMGVVQACSPEPCLQAVKMTDLSDNPIHESMWELEVEDLHRNIP [RMI2] | 0.168 | solubility in G1/S (log2) [2]: 0.374 |

| Substance | solubility change mitosis (log2) [1] | further results |
| --- | --- | --- |
| MAAAATAAEGVPSRGPPGEVIHLNVGGKRFSTSRQTLTWIPDSFFSSLLSGRISTLKDETGAIFIDRDPTVFAPILNFLRTKELDPRGVHGSSLLHEAQFYGLTPLVRRLQLREELDRSSCGNVLFNGYLPPPVFPVKRRNRHSLVGPQQLGGRPAPVRRSNTMPPNLGNAGLLGRMLDEKTPPSPSGQPEEPGMVRLVCGHHNWIAVAYTQFLVCYRLKEASGWQLVFSSPRLDWPIERLALTARVHGGALGEHDKMVAAATGSEILLWALQAEGGGSEIGVFHLGVPVEALFFVGNQLIATSHTGRIGVWNAVTKHWQVQEVQPITSYDAAGSFLLLGCNNGSIYYVDVQKFPLRMKDNDLLVSELYRDPAEDGVTALSVYLTPKTSDSGNWIEIAYGTSSGGVRVIVQHPETVGSGPQLFQTFTVHRSPVTKIMLSEKHLISVCADNNHVRTWSVTRFRGMISTQPGSTPLASFKILALESADGHGGCSAGNDIGPYGERDDQQVFIQKVVPSASQLFVRLSSTGQRVCSVRSVDGSPTTAFTVLECEGSRRLGSRPRRYLLTGQANGSLAMWDLTTAMDGLGQAPAGGLTEQELMEQLEHCELAPPAPSAPSWGCLPSPSPRISLTSLHSASSNTSLSGHRGSPSPPQAEARRRGGGSFVERCQELVRSGPDLRRPPTPAPWPSSGLGTPLTPPKMKLNETSF [SHKBP1] | -0.00881 | solubility in G1/S (log2) [2]: -0.0414 |
| MAAAEEGCSVGAEADRELEELLESALDDFDKAKPSPAPPSTTTAPDASGPQKRSPGDTAKDALFASQEKFFQELFDSELASQATAEFEKAMKELAEEEPHLVEQFQKLSEAAGRVGSDMTSQQEFTSCLKETLSGLAKNATDLQNSSMSEEELTKAMEGLGMDEGDGEGNILPIMQSIMQNLLSKDVLYPSLKEITEKYPEWLQSHRESLPPEQFEKYQEQHSVMCKICEQFEAETPTDSETTQKARFEMVLDLMQQLQDLGHPPKELAGEMPPGLNFDLDALNLSGPPGASGEQCLIM [PEX19] | 0.402 | solubility in G1/S (log2) [2]: -0.302 |
| MALSKRELDELKPWIEKTVKRVLGFSEPTVVTAALNCVGKGMDKKKAADHLKPFLDDSTLRFVDKLFEAVEEGRSSRHSKSSSDRSRKRELKEVFGDDSEISKESSGVKKRRIPRFEEVEEEPEVIPGPPSESPGMLTKLQIKQMMEAATRQIEERKKQLSFISPPTPQPKTPSSSQPERLPIGNTIQPSQAATFMNDAIEKARKAAELQARIQAQLALKPGLIGNANMVGLANLHAMGIAPPKVELKDQTKPTPLILDEQGRTVDATGKEIELTHRMPTLKANIRAVKREQFKQQLKEKPSEDMESNTFFDPRVSIAPSQRQRRTFKFHDKGKFEKIAQRLRTKAQLEKLQAEISQAARKTGIHTSTRLALIAPKKELKEGDIPEIEWWDSYIIPNGFDLTEENPKREDYFGITNLVEHPAQLNPPVDNDTPVTLGVYLTKKEQKKLRRQTRREAQKELQEKVRLGLMPPPEPKVRISNLMRVLGTEAVQDPTKVEAHVRAQMAKRQKAHEEANAARKLTAEQRKVKKIKKLKEDISQGVHISVYRVRNLSNPAKKFKIEANAGQLYLTGVVVLHKDVNVVVVEGGPKAQKKFKRLMLHRIKWDEQTSNTKGDDDEESDEEAVKKTNKCVLVWEGTAKDRSFGEMKFKQCPTENMAREHFKKHGAEHYWDLALSESVLESTD [PRPF3] | 0.331 | thermal stability score [3, 4]: 0.798; thermal stability score ([3]; cell cycle stage: mitosis): 3.15 |
| MAQPGTLNLNNEVVKMRKEVKRIRVLVIRKLVRSVGRLKSKKGTEDALLKNQRRAQRLLEEIHAMKELKPDIVTKSALGDDINFEKIFKKPDSTATERAIARLAVHPLLKKKIDVLKAAVQAFKEARQNVAEVESSKNASEDNHSENTLYSNDNGSNLQREATVISEQKVKETKILAKKPIHNSKEKIAKMEHGPKAVTIANSPSKPSEKDSVVSLESQKTPADPKLKTLSQTKKNKGSDSSLSGNSDGGEEFCEEEKEYFDDSTEERFYKQSSMSEDSDSGDDFFIGKVRRTRKKESSCHSSVKEQKPLEKVFLKEDTGETHGDTRNDKIKPSTETRKLESVFFHSLSGSKSSRRNFKEQAPKTRSLDFPQNEPQIKNQFNKKLSGRLENTKQQLQLPLHPSWEASRRRKEQQSNIAVFQGKKITFDD [SRFBP1] | 0.584 | thermal stability score [3, 4]: -0.14; thermal stability score ([3]; cell cycle stage: mitosis): -0.669 |
| MMCGAPSATQPATAETQHIADQVRSQLEEKENKKFPVFKAVSFKSQVVAGTNYFIKVHVGDEDFVHLRVFQSLPHENKPLTLSNYQTNKAKHDELTYF [CSTB] | -0.077 | thermal stability score [3, 4]: -2.35; thermal stability score ([3]; cell cycle stage: mitosis): -3.83 |
| MRPL1 | -0.101 | – |
| MRPL2 | 0.0937 | – |
| MRPL9 | -0.0572 | – |
| MRPL13 | -0.0691 | – |
| MRPL20 | -0.0687 | – |
| MRPL28 | 0.00818 | – |
| MRPL30 | 0.00936 | – |
| MRPL32 | 0.35 | – |
| MRPL33 | -0.0245 | – |
| MRPL41 | 0.232 | – |
| MRPL43 | 0.445 | – |
| MRPS6 | 0.0185 | – |
| MRPS10 | -0.0122 | – |
| MRPS11 | -0.0467 | – |
| MRPS21 | 0.0482 | – |
| MRPS22 | -0.0527 | – |

| Substance | solubility change mitosis (log2) [1] | further results |
| --- | --- | --- |
| MRPS23 | 0.188 | – |
| MRPS24 | -0.0858 | – |
| MRPS31 | -0.0986 | – |
| MRPS35 | 0.0565 | – |
| MSYGRPPPDVEGMTSLKVDNLTYRTSPDTLRRVFEKYGRVGDVYIPRDRYTKESRGFAFVRFHDKRDAEDAMDAMDGAVLDGRELRVQMARYGRPPDSHHSRRGPPPRRYGGGGYGRRSRSPRRRRRSRSRSRSRSRSRSRSRYSRSKSRSRTRSRSRSTSKSRSARRSKSKSSSVSRSRSRSRSRSRSRSPPPVSKRESKSRSRSKSPPKSPEEEGAVSS [SRSF2] | 0.24 | thermal stability score [3, 4]: -2.71; thermal stability score ([3]; cell cycle stage: mitosis): -5.51 |
| MTKDKNSPGLKKKSQSVDINAPGFNPLAGAGKQTPQASKPPAPKTPIIEEEQNNAANTQKHPSRRSELKRFYTIDTGQKKTLDKKDGRRMSFQKPKGTIEYTVESRDSLNSIALKFDTTPNELVQLNKLFSRAVVTGQVLYVPDPEYVSSVESSPSLSPVSPLSPTSSEAEFDKTTNPDVHPTEATPSSTFTGIRPARVVSSTSEEEEAFTEKFLKINCKYITSGKGTVSGVLLVTPNNIMFDPHKNDPLVQENGCEEYGIMCPMEEVMSAAMYKEILDSKIKESLPIDIDQLSGRDFCHSKKMTGSNTEEIDSRIRDAGNDSASTAPRSTEESLSEDVFTESELSPIREELVSSDELRQDKSSGASSESVQTVNQAEVESLTVKSESTGTPGHLRSDTEHSTNEVGTLCHKTDLNNLEMAIKEDQIADNFQGISGPKEDSTSIKGNSDQDSFLHENSLHQEESQKENMPCGETAEFKQKQSVNKGKQGKEQNQDSQTEAEELRKLWKTHTMQQTKQQRENIQQVSQKEAKHKITSADGHIESSALLKEKQRHRLHKFLCLRVGKPMRKTFVSQASATMQQYAQRDKKHEYWFAVPQERTDHLYAFFIQWSPEIYAEDTGEYTREPGFIVVKKIEESETIEDSSNQAAAREWEVVSVAEYHRRIDALNTEELRTLCRRLQITTREDINSKQVATVKADLESESFRPNLSDPSELLLPDQIEKLTKHLPPRTIGYPWTLVYGTGKHGTSLKTLYRTMTGLDTPVLMVIKDSDGQVFGALASEPLKVSDGFYGTGETFVFTFCPEFEVFKWTGDNMFFIKGDMDSLAFGGGGGEFALWLDGDLYHGRSHSCKTFGNRTLSKKEDFFIQDIEIWAFE [OXR1] | -0.176 | thermal stability score [3, 4]: -0.363; thermal stability score ([3]; cell cycle stage: mitosis): -2.03 |
| NAA40 | 0.145 | – |
| PRKACB | -0.134 | – |
| PSEN1 | 0.045 | – |
| RPL3 | 0.667 | – |
| RPL5 | 0.442 | – |
| RPL7A | 0.753 | – |
| RPL9 | 0.502 | – |
| RPL12 | 0.659 | – |
| RPL13A | 0.619 | – |
| RPL18 | 0.797 | – |
| RPL19 | 0.873 | – |
| RPL21 | 0.856 | – |
| RPL22 | 0.576 | – |
| RPL26L1 | 0.994 | – |
| RPL35 | 1.27 | – |

| Substance | solubility change mitosis (log2) [1] | further results |
| --- | --- | --- |
| RPS2 | 0.389 | – |
| RPS8 | 0.735 | – |
| RPS9 | 0.434 | – |
| RPS13 | 0.484 | – |
| RPS15 | 0.616 | – |
| RPS15A | 0.424 | – |
| RPS16 | 0.511 | – |
| RPS18 | 0.385 | – |
| RPS28 | 0.73 | – |
| RPS29 | 0.655 | – |
| SCFD1 | -0.0937 | – |
| SLIRP | 0.0681 | – |
| SNCA | 0.157 | – |
| STAM2 | -0.173 | – |
| SUPT6H | 0.0526 | – |
| TFRC | -0.13 | – |
| TPRG1L | -0.205 | – |
| UBA52 | 0.558 | – |
| VPS29 | -0.224 | – |
| WDR5 | -0.102 | – |
